Ends that are not written are not given here. CF = 5(6)-carboxyfluorescein

The text below walks through data of patent US20150017115A1 (RAMOT AT TEL AVIV UNIVERSITY, published 2015).

The target in this experiment is T1, Neural cell adhesion molecule (NCAM, CD56) (human, UniProt P13591 20-858).
T1 construct: whole, on cells
Put plainly: confocal microscopy of Saos-2 cells with fluorescently labeled peptide. As for the experimental part: Cell specificity and uptake of the fluorescently labeled peptides was monitored utilizing a Zeiss Meta LSM 510 confocal imaging system. Cells were plated on glass slides and incubated overnight. The following day cells were incubated with 100 μM of CF-NTP or CF-scrambled peptide for 30 minutes at 37° C., washed several times with PBS, fixated with 4% paraformaldehyde, stained with Hoechst stain and mounted on slides. In order to examine intracellular trafficking of the peptide, cells were incubated with the peptides in serum free medium, washed several times with cold PBS and incubated with […] AlexaFluor 594 human transferrin for 1 h at 37° C. Cells were washed several times with PBS, fixated with 4% PFA, stained with Hoechst stain and mounted on slides.
Binding of NTP (SEQ ID NO:1) to Saos-2 cells, compared to binding of sNTP (SEQ ID NO:2), was examined by confocal microscopy. FITC-labeled targeting peptides were used. […] In experiments with transferrin, peptide was seen as intracellular aggregates or vesicles, though not colocalized with transferrin.

T1 sequence (P13591 20-858): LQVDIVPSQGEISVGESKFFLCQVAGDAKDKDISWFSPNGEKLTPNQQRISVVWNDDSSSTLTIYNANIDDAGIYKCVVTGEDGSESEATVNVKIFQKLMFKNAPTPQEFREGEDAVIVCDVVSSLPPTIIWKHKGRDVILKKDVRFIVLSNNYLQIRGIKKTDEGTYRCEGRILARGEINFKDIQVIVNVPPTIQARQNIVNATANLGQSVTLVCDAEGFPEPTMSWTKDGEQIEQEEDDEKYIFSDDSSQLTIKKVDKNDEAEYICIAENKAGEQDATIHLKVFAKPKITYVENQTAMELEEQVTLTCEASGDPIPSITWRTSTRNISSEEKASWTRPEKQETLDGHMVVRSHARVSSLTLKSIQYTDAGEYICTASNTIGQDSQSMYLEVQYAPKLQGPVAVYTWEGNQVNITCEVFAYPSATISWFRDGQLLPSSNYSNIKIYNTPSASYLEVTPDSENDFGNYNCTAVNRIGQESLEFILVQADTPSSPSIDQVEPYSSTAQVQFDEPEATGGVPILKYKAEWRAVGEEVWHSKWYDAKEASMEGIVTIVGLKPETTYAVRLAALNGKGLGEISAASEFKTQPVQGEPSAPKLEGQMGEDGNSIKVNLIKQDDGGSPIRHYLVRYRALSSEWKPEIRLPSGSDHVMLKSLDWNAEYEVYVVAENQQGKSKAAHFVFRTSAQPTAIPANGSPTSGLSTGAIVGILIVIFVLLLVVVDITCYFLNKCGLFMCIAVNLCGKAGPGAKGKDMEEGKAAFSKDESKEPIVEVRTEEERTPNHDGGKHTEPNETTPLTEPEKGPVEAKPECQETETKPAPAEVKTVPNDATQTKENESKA

B1: scrambled NTP sequence (sNTP), fluorescein-labeled (peptide)
peptide: {CF}-GESDDEND
notes: also called scrambled peptide; CF-scrambled peptide
With B1, the binding result is listed as “no binding (tested: 100 µM)”.
